The RNAGym collection of RNA variant scans (doi:10.1093/molbev/msab373)

B1: Azoarcus group I ribozyme (parent)
chain: GUGCCUUGCGCCGGGAAACCACGCAAGGGAUGGUGUCAAAUUCGGCGAAACCUAAGCGCCCGCCCGGGCGUAUGGCAACGCCGAGCCAAGCUUCGGCGCCUGCGCCGAUGAAGGUGUAGAGACUAGACGGCACCCACCUAAGGCAAACGCUAUGGUGAAGGCAUAGUCCAGGGAGUGGCGAAAGUCACACAAACCGG

Variants of: B1
Test: reverse-splicing fitness (ratio to wild type); higher = more active; in vitro selection; Mg2+ level not given
Method in brief: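 An in vitro group I ribozyme library with randomized positions was T7-transcribed and gel-purified. In triplicate, 10 pmol RNA in EPPS pH 7.5 was reacted with 50 pmoles of a 30-nt RNA substrate for 1 h at 37 °C across several added MgCl2 levels (1–48 mM), then stopped with EDTA. Products were reverse transcribed from a substrate-complementary primer, PCR-amplified and sequenced (HiSeq 4000). Fitness is a variant's read proportion after selection over that before, normalised to wild type.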

Row | Variant | reverse-splicing fitness
1 | GUGCCUUGCGCCGGGAAACCACGCAAGGGAUGGUGUCAAAUUCGGCGAAACCUAAGCGCCCGCCCGGGCGUAUGGCAACGCAGAGCCAAGCUUCGGCGCCUGCGCCGAUGCAGGUGUAGAGACUAGACGGCACCCACCUAAGGCGAACGAUAUGGUGAAGGCAUAGUCAAGGGAGAGGCGAAAGUCACACAAACCGG | 0.0172
2 | GUGCCUUGCGCCGGGAAACCACGCAAGGGAUGGUGUCAAAUUCGGCGAAACCUAAGCGCCCGCCCGGGCGUAUGGCAACGCAGAGCCAAGCUUCGGCGCCUGCGCCGAUGCAGGUGUAGAGACUAGACGGCACCCACCUAAGGCGAACGAUAUGGUGAAGGCAUAGUCAAGGGAGCGGCGAAAGUCACACAAACCGG | 0.0191
3 | GUGCCUUGCGCCGGGAAACCACGCAAGGGAUGGUGUCAAAUUCGGCGAAACCUAAGCGCCCGCCCGGGCGUAUGGCAACGCAGAGCCAAGCUUCGGCGCCUGCGCCGAUGCAGGUGUAGAGACUAGACGGCACCCACCUAAGGCGAACGAUAUGGUGAAGGCAUAGUCAAGGGAGGGGCGAAAGUCACACAAACCGG | 0.0091
4 | GUGCCUUGCGCCGGGAAACCACGCAAGGGAUGGUGUCAAAUUCGGCGAAACCUAAGCGCCCGCCCGGGCGUAUGGCAACGCAGAGCCAAGCUUCGGCGCCUGCGCCGAUGCAGGUGUAGAGACUAGACGGCACCCACCUAAGGCGAACGAUAUGGUGAAGGCAUAGUCUAGGGAGGGGCGAAAGUCACACAAACCGG | 0.00882
5 | GUGCCUUGCGCCGGGAAACCACGCAAGGGAUGGUGUCAAAUUCGGCGAAACCUAAGCGCCCGCCCGGGCGUAUGGCAACGCAGAGCCAAGCUUCGGCGCCUGCGCCGAUGCAGGUGUAGAGACUAGACGGCACCCACCUAAGGCGAACGAUAUGGUGAAGGCAUAGUCUAGGGAGAGGCGAAAGUCACACAAACCGG | 0.0149
6 | GUGCCUUGCGCCGGGAAACCACGCAAGGGAUGGUGUCAAAUUCGGCGAAACCUAAGCGCCCGCCCGGGCGUAUGGCAACGCAGAGCCAAGCUUCGGCGCCUGCGCCGAUGCAGGUGUAGAGACUAGACGGCACCCACCUAAGGCGAACGAUAUGGUGAAGGCAUAGUCUAGGGAGCGGCGAAAGUCACACAAACCGG | 0.0158
7 | GUGCCUUGCGCCGGGAAACCACGCAAGGGAUGGUGUCAAAUUCGGCGAAACCUAAGCGCCCGCCCGGGCGUAUGGCAACGCAGAGCCAAGCUUCGGCGCCUGCGCCGAUGCAGGUGUAGAGACUAGACGGCACCCACCUAAGGCGAACGCUAUGGUGAAGGCAUAGUCCAGGGAGUGGCGAAAGUCACACAAACCGG | 0.258
8 | GUGCCUUGCGCCGGGAAACCACGCAAGGGAUGGUGUCAAAUUCGGCGAAACCUAAGCGCCCGCCCGGGCGUAUGGCAACGCAGAGCCAAGCUUCGGCGCCUGCGCCGAUGCAGGUGUAGAGACUAGACGGCACCCACCUAAGGCCAACGCUAUGGUGAAGGCAUAGUCCAGGGAGCGGCGAAAGUCACACAAACCGG | 0.0878
9 | GUGCCUUGCGCCGGGAAACCACGCAAGGGAUGGUGUCAAAUUCGGCGAAACCUAAGCGCCCGCCCGGGCGUAUGGCAACGCAGAGCCAAGCUUCGGCGCCUGCGCCGAUGCAGGUGUAGAGACUAGACGGCACCCACCUAAGGCCAACGCUAUGGUGAAGGCAUAGUCCAGGGAGAGGCGAAAGUCACACAAACCGG | 0.0639
10 | GUGCCUUGCGCCGGGAAACCACGCAAGGGAUGGUGUCAAAUUCGGCGAAACCUAAGCGCCCGCCCGGGCGUAUGGCAACGCAGAGCCAAGCUUCGGCGCCUGCGCCGAUGCAGGUGUAGAGACUAGACGGCACCCACCUAAGGCCAACGCUAUGGUGAAGGCAUAGUCCAGGGAGGGGCGAAAGUCACACAAACCGG | 0.0188
11 | GUGCCUUGCGCCGGGAAACCACGCAAGGGAUGGUGUCAAAUUCGGCGAAACCUAAGCGCCCGCCCGGGCGUAUGGCAACGCAGAGCCAAGCUUCGGCGCCUGCGCCGAUGCAGGUGUAGAGACUAGACGGCACCCACCUAAGGCCAACGCUAUGGUGAAGGCAUAGUCUAGGGAGAGGCGAAAGUCACACAAACCGG | 0.0142
12 | GUGCCUUGCGCCGGGAAACCACGCAAGGGAUGGUGUCAAAUUCGGCGAAACCUAAGCGCCCGCCCGGGCGUAUGGCAACGCAGAGCCAAGCUUCGGCGCCUGCGCCGAUGCAGGUGUAGAGACUAGACGGCACCCACCUAAGGCCAACGCUAUGGUGAAGGCAUAGUCUAGGGAGGGGCGAAAGUCACACAAACCGG | 0.00646
13 | GUGCCUUGCGCCGGGAAACCACGCAAGGGAUGGUGUCAAAUUCGGCGAAACCUAAGCGCCCGCCCGGGCGUAUGGCAACGCAGAGCCAAGCUUCGGCGCCUGCGCCGAUGCAGGUGUAGAGACUAGACGGCACCCACCUAAGGCCAACGCUAUGGUGAAGGCAUAGUCUAGGGAGCGGCGAAAGUCACACAAACCGG | 0.0138
14 | GUGCCUUGCGCCGGGAAACCACGCAAGGGAUGGUGUCAAAUUCGGCGAAACCUAAGCGCCCGCCCGGGCGUAUGGCAACGCAGAGCCAAGCUUCGGCGCCUGCGCCGAUGCAGGUGUAGAGACUAGACGGCACCCACCUAAGGCGAACGAUAUGGUGAAGGCAUAGUCGAGGGAGGGGCGAAAGUCACACAAACCGG | 0.0087
15 | GUGCCUUGCGCCGGGAAACCACGCAAGGGAUGGUGUCAAAUUCGGCGAAACCUAAGCGCCCGCCCGGGCGUAUGGCAACGCAGAGCCAAGCUUCGGCGCCUGCGCCGAUGCAGGUGUAGAGACUAGACGGCACCCACCUAAGGCGAACGAUAUGGUGAAGGCAUAGUCGAGGGAGCGGCGAAAGUCACACAAACCGG | 0.0253
